Assay results from paper PMC4363203.

Target: centromere protein A (CENP-A), histone H3 variant (human (endogenous in HcoEpiC, HeLa and SW480)) (UniProt P49450)
Assay: co-IP; sequential native CENP-A IP of the chromatin left unbound by the CENP-B IP ('ectopic CENP-A'); SW480 cells; quantitative fluorescent western blot, background-corrected, input-adjusted ratio to the CENP-B IP

UniProt P49450, sequence (P49450 whole entry, change not shown): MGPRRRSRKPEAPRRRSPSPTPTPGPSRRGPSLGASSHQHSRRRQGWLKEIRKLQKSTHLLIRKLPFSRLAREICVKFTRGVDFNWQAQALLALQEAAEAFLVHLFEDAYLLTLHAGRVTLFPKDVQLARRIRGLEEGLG

H3 fold enrichment (Seq. CpA IP/CpB IP)	ATRX fold enrichment (Seq. CpA IP/CpB IP)	Substance
2.91 fold		canonical histone H3 (from UniProt P68431 1-136) (natural protein)
	0.81 fold	ATRX, transcription-coupled histone chaperone (from UniProt P46100 1-2492) (natural protein)
